Results from US20180126009A1 (SURGIMAB S A S, published 2018).
Blank lines part the entries; values can stand above or below the binder they belong to.

Assays:
carcinoembryonic antigen [1] = target: T1, carcinoembryonic antigen (UniProt P06731 35-685, limits assumed); assay: SPR, BIACORE 3000, CEA thiol-coupled to CM5 chip, antibody in flow at 50 nM to 1.5 nM; chimeric antibody of Example 1, unlabelled
T1 construct: Antigen preparation used in the SPR assay; also called CEA
T1 sequence (looked up): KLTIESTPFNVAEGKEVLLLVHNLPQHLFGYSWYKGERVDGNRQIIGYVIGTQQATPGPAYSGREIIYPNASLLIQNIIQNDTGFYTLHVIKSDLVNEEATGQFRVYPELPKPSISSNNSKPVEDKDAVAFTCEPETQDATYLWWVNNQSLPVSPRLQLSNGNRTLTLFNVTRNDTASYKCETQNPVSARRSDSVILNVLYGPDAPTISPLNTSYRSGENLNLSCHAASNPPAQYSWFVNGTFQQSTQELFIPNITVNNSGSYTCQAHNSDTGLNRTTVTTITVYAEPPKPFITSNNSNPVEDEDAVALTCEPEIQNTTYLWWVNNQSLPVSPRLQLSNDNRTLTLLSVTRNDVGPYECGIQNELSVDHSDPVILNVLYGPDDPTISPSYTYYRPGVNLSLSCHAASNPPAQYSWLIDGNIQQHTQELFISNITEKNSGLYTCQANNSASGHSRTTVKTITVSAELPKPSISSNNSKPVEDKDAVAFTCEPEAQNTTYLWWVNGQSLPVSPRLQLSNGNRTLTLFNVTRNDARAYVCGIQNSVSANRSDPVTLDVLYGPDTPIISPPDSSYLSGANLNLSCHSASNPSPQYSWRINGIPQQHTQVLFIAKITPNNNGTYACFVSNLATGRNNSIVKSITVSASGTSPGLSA
Protocol: (§1) The affinity of the fluorescent conjugate as prepared in Example 3 to the target carcinoembryonic antigen was also determined, using surface plasmon resonance (SPR) on a BIACORE 3000 device. Carcinoembryonic antigen was coupled to a CM5 chip via the thiol groups (Surface Thiol Coupling GE healthcare; Instruction 22-0618-10AB). Association and dissociation rates were measured using in the flow 6 different concentrations (from 50 nM to 1.5 nM) of the chimeric monoclonal antibody of Example 1, the monoclonal antibody m511 (the original murine antibody from which the variable regions the chimeric monoclonal antibody of Ex. 1 is based) and fluorescent conjugate. Data acquisition and parameters calculations were performed using the Bia software and Bia evaluation programs.

carcinoembryonic antigen [2] = target: T1, carcinoembryonic antigen; assay: SPR, BIACORE 3000, CEA thiol-coupled to CM5 chip, conjugate in flow at 50 nM to 1.5 nM; chimeric antibody labelled with the near-infrared dye (conjugate of Ex. 3)
Protocol: as §1

carcinoembryonic antigen [3] = target: T1, carcinoembryonic antigen; assay: SPR, BIACORE 3000, CEA thiol-coupled to CM5 chip, antibody in flow at 50 nM to 1.5 nM; parental murine antibody m511
Protocol: as §1

Kd (carcinoembryonic antigen [1]): 0.0327 nM
B1: anti-CEA chimeric monoclonal antibody of Example 1 (antibody, human IgG1, V domains shown)
VH: DVQLVESGGGLVQPGGSRKLSCAASGFTFSNFGMHWIRQAPEKGLEWVAYISGGSSTIYFADTLKGRFTISRDNPKNTLFLQMTSLRSEDTAIYYCARDYYINNYWYFDVWGAGTTVTVSS
VL: DIVMTQSQKFMSTSVGDRVSITCKASQNVRSAVAWYQQTPGQSPKALIYLASNRYTGVPDRFTGSGSGTDFTLTISNVQSEDLADYFCLQHWNYPLTFGGGTKLELK
notes: Expressed in CHO cells; 148.6 kDa by MALDI-TOF; also called chimeric mAb directed against CEA; anti-CEA chimeric mAb

Kd (carcinoembryonic antigen [2]): 0.0321 nM
B2: fluorescent conjugate of Example 3 (anti-CEA chimeric mAb of Example 1 coupled to the fluorochrome of Formula (IV)) (antibody, V domains shown)
VH: B1 VH
VL: B1 VL
modifications: cyanine fluorochrome (NHS ester of Formula (IV), giving moiety F of formula (II)) coupled to the antibody; average fluorochrome/antibody molar ratio 1.5-1.6; sites of coupling not stated
notes: In the tissue cross-reactivity study the conjugate was also biotin labelled; also called conjugate of Ex. 3

Kd (carcinoembryonic antigen [3]): 0.0382 nM
B3: monoclonal antibody m511 (antibody, V domains shown)
VH: B1 VH
VL: B1 VL
notes: Murine parental antibody; also called parental murine 511 antibody; original murine antibody
